From US20250340607A1 (UNIVERSITY OF CHICAGO, published 2025)
Values belong to the binder of their own block, whether it stands above or below them.

Molecular target: T1, murine Flt3 (R&D 768-F3-050) (murine, UniProt Q00342 28-544)
T1 construct: Bought recombinant protein coated on the ELISA plate; also called receptor for Flt3L; recombinant CD135
T1 sequence (looked up): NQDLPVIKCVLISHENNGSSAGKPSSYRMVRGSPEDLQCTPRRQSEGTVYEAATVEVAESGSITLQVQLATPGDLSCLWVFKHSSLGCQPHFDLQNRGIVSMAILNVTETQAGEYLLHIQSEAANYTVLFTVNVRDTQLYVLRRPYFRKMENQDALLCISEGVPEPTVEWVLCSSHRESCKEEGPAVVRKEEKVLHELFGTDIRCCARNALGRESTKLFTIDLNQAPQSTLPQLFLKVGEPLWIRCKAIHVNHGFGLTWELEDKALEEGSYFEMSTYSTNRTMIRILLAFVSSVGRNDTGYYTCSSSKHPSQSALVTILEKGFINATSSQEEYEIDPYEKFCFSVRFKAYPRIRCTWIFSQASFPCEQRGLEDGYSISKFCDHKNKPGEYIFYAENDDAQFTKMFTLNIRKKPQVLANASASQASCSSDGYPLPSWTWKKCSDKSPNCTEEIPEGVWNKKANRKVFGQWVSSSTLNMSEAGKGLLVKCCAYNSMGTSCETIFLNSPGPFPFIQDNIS
Assay: ELISA: plate coated with murine Flt3, Flt3L variants titrated, detection with biotinylated anti-Flt3L and avidin-HRP
Description: Protein was cloned, produced, and purified as described in methods. Following purification, bands were confirmed at the expected sizes via SDS-PAGE under reducing conditions (WT at around 30 KDa with multiple bands due to glycosylation differences and Flt3L-MSA at around 75 KDa). Binding of each protein to the receptor for Flt3L (murine Flt3, R&D 768-F3-050) was then confirmed via ELISA. Briefly, high binding plates were coated overnight with 50 μL of 1 nM protein in a Carb/Bicarb buffer pH of 9. The plates were then washed and blocked using R&D blocking buffer before the addition of Flt3L variants at different concentrations in blocking buffer. Detection occurred using biotinylated αFlt3L and subsequent incubation with avidin-HRP. Binding was then visualized via incubation with TMB solution until highest concentrations reached an approximate absorbance of 1 and the reaction was stopped using 2N H2SO4.
High-bind plates (Corning #9018) were coated by incubating overnight at 4 C with 10 nM recombinant CD135 (R&D 768-F3-050) in […] sodium bicarbonate buffer at pH 9.2. Following coating, plates were washed in PBST before blocking in 1× reagent diluent (R&D DY995) for 2 hours at RT. Samples were then diluted to the indicated concentration in triplicate using the same reagent diluent. […] Quantification occurred by reading the absorbance at 450 nm and 570 nm.

- Kd: 160 pM
B1: Flt3L fused to Mouse Serum Albumin (Flt3L-MSA) (other)
chain: MTPDCYFSHSPISSNFKVKFRELTDHLLKDYPVTVAVNLQDEKHCKALWSLFLAQRWIEQLKTVAGSKMQTLLEDVNTEIHFVTSCTFQPLPECLRFVQTNISHLLKDTCTQLLALKPCIGKACQNFSRCLEVQCQPDSSTLLPPRSPIALEATELPEPRPRQGGGGSGGGGSEAHKSEIAHRYNDLGEQHFKGLVLIAFSQYLQKCSYDEHAKLVQEVTDFAKTCVADESAANCDKSLHTLFGDKLCAIPNLRENYGELADCCTKQEPERNECFLQHKDDNPSLPPFERPEAEAMCTSFKENPTTFMGHYLHEVARRHPYFYAPELLYYAEQYNEILTQCCAEADKESCLTPKLDGVKEKALVSSVRQRMKCSSMQKFGERAFKAWAVARLSQTFPNADFAEITKLATDLTKVNKECCHGDLLECADDRAELAKYMCENQATISSKLQTCCDKPLLKKAHCLSEVEHDTMPADLPAIAADFVEDQEVCKNYAEAKDVFLGTFLYEYSRRHPDYSVSLLLRLAKKYEATLEKCCAEANPPACYGTVLAEFQPLVEEPKNLVKTNCDLYEKLGEYGFQNAILVRYTQKAPQVSTPTLVEAARNLGRVGTKCCTLPEDQRLPCVEDYLSAILNRVCLLHEKTPVSEHVTKCCSGSLVERRPCFSALTVDETYVPKEFKAETFTFHSDICTLPEKEKQIKKQTALAELVKHKPKATAEQLKTVMDDFAQFLDTCCKAADKDTCFSTEGPNLVTRCKDALAHHHHHH
notes: also called MSA fused Flt3L; Flt3L-SA

- Kd: 160 pM
B2: wild type murine Flt3L (ligand)
chain: MTPDCYFSHSPISSNFKVKFRELTDHLLKDYPVTVAVNLQDEKHCKALWSLFLAQRWIEQLKTVAGSKMQTLLEDVNTEIHFVTSCTFQPLPECLRFVQTNISHLLKDTCTQLLALKPCIGKACQNFSRCLEVQCQPDSSTLLPPRSPIALEATELPEPRPRQ
notes: Made in HEK293F cells and glycosylated (multiple bands around 30 kDa); also called WT Flt3L; WT; not shown: it was purified over a HisTrap HP column, so it probably carries a His tag
